From paper PMC3894988, “Human Variants in the Neuronal Basic Helix-Loop-Helix/Per-Arnt-Sim (bHLH/PAS) Transcription Factor Complex NPAS4/ARNT2 Disrupt Function” (PLoS ONE, 2014)

Assays:
[1] = target: endogenous ARNT2 (HEK293T) (human (endogenous in HEK293T)) (UniProt Q9HBZ2)
[2] = target: ARNT2, overexpressed (human Aryl hydrocarbon Receptor Nuclear Translator 2) (human, UniProt Q9HBZ2 1-717); assay: cell-based or functional assay
Chain of ARNT2, overexpressed (human Aryl hydrocarbon Receptor Nuclear Translator 2) (Q9HBZ2 whole entry): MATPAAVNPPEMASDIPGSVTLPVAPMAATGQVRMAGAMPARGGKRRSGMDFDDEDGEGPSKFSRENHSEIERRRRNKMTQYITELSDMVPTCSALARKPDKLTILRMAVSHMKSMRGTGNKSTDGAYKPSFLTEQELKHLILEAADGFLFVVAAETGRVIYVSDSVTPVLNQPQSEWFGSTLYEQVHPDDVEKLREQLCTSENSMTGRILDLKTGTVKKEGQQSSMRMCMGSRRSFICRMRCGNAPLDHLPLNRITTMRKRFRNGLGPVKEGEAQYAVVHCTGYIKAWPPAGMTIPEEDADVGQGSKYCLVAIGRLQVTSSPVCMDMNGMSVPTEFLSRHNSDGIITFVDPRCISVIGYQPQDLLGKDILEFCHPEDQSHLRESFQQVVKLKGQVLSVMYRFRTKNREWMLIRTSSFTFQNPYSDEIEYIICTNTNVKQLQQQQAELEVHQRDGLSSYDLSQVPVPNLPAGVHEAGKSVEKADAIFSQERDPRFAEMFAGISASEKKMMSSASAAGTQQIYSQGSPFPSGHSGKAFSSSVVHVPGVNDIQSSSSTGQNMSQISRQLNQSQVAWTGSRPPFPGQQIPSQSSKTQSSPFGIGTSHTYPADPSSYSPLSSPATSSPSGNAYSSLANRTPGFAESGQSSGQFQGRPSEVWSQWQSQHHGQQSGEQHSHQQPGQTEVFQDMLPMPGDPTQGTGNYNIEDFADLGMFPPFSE

Chain of endogenous ARNT2 (HEK293T) (human (endogenous in HEK293T)) (Q9HBZ2 whole entry): as above

Binder	induction of BDNF exon I mRNA in 293TREX cells (quantitative real-time PCR), reduction against WT NPAS4 [1]	activity on the 6xCME-Luc luciferase reporter gene in HEK293T cells, percent of WT NPAS4 [2]
NPAS4.F147S-mycFlag (natural protein) MYRSTKGASKARRDQINAEIRNLKELLPLAEADKVRLSYLHIMSLACIYTRKGVFFAGGTPLAGPTGLLSAQELEDIVAALPGFLLVFTAEGKLLYLSESVSEHLGHSMVDLVAQGDSIYDIIDPADHLTVRQQLTLPSALDTDRLSRCRFNTSKSLRRQSAGNKLVLIRGRFHAHPPGAYWAGNPVFTAFCAPLEPRPRPGPGPGPGPASLFLAMFQSRHAKDLALLDISESVLIYLGFERSELLCKSWYGLLHPEDLAHASAQHYRLLAESGDIQAEMVVRLQAKTGGWAWIYCLLYSEGPEGPITANNYPISDMEAWSLRQQLNSEDTQAAYVLGTPTMLPSFPENILSQEECSSTNPLFTAALGAPRSTSFPSAPELSVVSASEELPRPSKELDFSYLTFPSGPEPSLQAELSKDLVCTPPYTPHQPGGCAFLFSLHEPFQTHLPTPSSTLQEQLTPSTATFSDQLTPSSATFPDPLTSPLQGQLTETSVRSYEDQLTPCTSTFPDQLLPSTATFPEPLGSPAHEQLTPPSTAFQAHLDSPSQTFPEQLSPNPTKTYFAQEGCSFLYEKLPPSPSSPGNGDCTLLALAQLRGPLSVDVPLVPEGLLTPEASPVKQSFFHYSEKEQNEIDRLIQQISQLAQGMDRPFSAEAGTGGLEPLGGLEPLDSNLSLSGAGPPVLSLDLKPWKCQELDFLADPDNMFLEETPVEDIFMDLSTPDPSEEWGSGDPEAEGPGGAPSPCNNLSPEDHSFLEDLATYETAFETGVSAFPYDGFTDELHQLQSQVQDSFHEDGSGGEPTF	90%	–
NPAS4.F147A-mycFlag (natural protein, human, UniProt Q8IUM7 1-802, looked up) MYRSTKGASKARRDQINAEIRNLKELLPLAEADKVRLSYLHIMSLACIYTRKGVFFAGGTPLAGPTGLLSAQELEDIVAALPGFLLVFTAEGKLLYLSESVSEHLGHSMVDLVAQGDSIYDIIDPADHLTVRQQLTLPSALDTDRLARCRFNTSKSLRRQSAGNKLVLIRGRFHAHPPGAYWAGNPVFTAFCAPLEPRPRPGPGPGPGPASLFLAMFQSRHAKDLALLDISESVLIYLGFERSELLCKSWYGLLHPEDLAHASAQHYRLLAESGDIQAEMVVRLQAKTGGWAWIYCLLYSEGPEGPITANNYPISDMEAWSLRQQLNSEDTQAAYVLGTPTMLPSFPENILSQEECSSTNPLFTAALGAPRSTSFPSAPELSVVSASEELPRPSKELDFSYLTFPSGPEPSLQAELSKDLVCTPPYTPHQPGGCAFLFSLHEPFQTHLPTPSSTLQEQLTPSTATFSDQLTPSSATFPDPLTSPLQGQLTETSVRSYEDQLTPCTSTFPDQLLPSTATFPEPLGSPAHEQLTPPSTAFQAHLDSPSQTFPEQLSPNPTKTYFAQEGCSFLYEKLPPSPSSPGNGDCTLLALAQLRGPLSVDVPLVPEGLLTPEASPVKQSFFHYSEKEQNEIDRLIQQISQLAQGMDRPFSAEAGTGGLEPLGGLEPLDSNLSLSGAGPPVLSLDLKPWKCQELDFLADPDNMFLEETPVEDIFMDLSTPDPSEEWGSGDPEAEGPGGAPSPCNNLSPEDHSFLEDLATYETAFETGVSAFPYDGFTDELHQLQSQVQDSFHEDGSGGEPTF	–	~65 % of wt
